# Experimental data as given in a protein production outcome set (Wang et al. 2014).
# Assay: label from the status in PepcDB records
row,Sequence,protein production
1,MDGLHVSILSLVIFIVLFAVFVYLGFYASRWRKGDLSKLPEWALAGRKLGPYLMWFLLTADLFTAYTFIAVPSLVLASGPIGFYAAFYSGVTAFIALLFMPRLWAVSRNKGYVTAADFVKDRFNSKTLAGLVAVTGVVAELPYIALQIVGMQAALSILLLGLGVSNISLVNDLSLLVSFIILAAFVFTSGLRGAALTAVYKDIIILATVITVAIYVPLAFGGFSAAFSNAATYSSQVNSALNGVNKPIFYQYLQSTVSNNLAYISLAIGSAFALYLYPHAVNGSVSADSKKSLKISLALQPFYSLILAIIALFGILVYANTNVLNFIIHAKSGAVAVPALIGYTMPDWFVGVALLGIFIGGLVPAAIMAIGAANLLTRNIIKELKPNMSPNTESSLAKWISTAFKFIALALVFTVPATYAIQLQLLGGVIILQTLPPLFLGLYTHKLNSHSLIAGWVAGMFSGIYLTMLANHFGPIKTTSFITPIGVMYIGAISVIINVAIGLIGTAIAYGVGWRPRTGVKTEELV,failed
2,MDGMGTLTRYLEEAMARARYELIADEEPYYGEIPDLPGVWATGKSLKECEANLQAALEDWLLFLLSRGETPPPLGEVRIELPHGEAA,not failed
3,MDGQQLNRLLLEWIGAWDPFGLGKDAYDVEAASVLQAVYETEDARTLAARIQSIYEFAFDEPIPFPHCLKLARRLLELKQAASCPLP,not failed
4,MDGRDLVRSVKAVGSGGAAGGLRTVRAAWRRRRADASGLPRRGAERARVPGPVQGVVPGPGGGVIRFARSELRITVAVNGAVFWGWDGAGPEPSYALAGRCPEPDPRAVLEPDKDGGWQVVAERGTVMVSRHGAVEVRTPGGVTLRRDLPPRWWEPADGGAAHWMQRSEVAADARFFGLGGRAAGPRLRGGTYRLWNTDPGHAVGPGDDPLYLTMPVQLVVADAATHLVFHDTSWDGTVTLREGEEGAGSGHDRAGTSELRMDGGPLRCWVMMGTPARVLHTWASLTGAPALPPAWALGHHHARRGSGSEQEVRGVVSGYQERGLPLDAVHLDNDHYDAHQVFTVDRDRFPKLPVLAEELRRDGIRLVSVVDPAVRAEPGNAVYDAGSAQDAFVRDAAGRVVEGVVWPGESVYPDFTHARVRKWWGGLYEERLAQGFAGFWHDLNEPVSFTAFGENTLPRSARHLLEGRGGDHREAHNVYALGMARAGYEGLRELSPQERPFIFSRSGWSGMQRYGGAWSGDVTTGWPGLRASLSLVIGLGLCGVPYSGPDVGGFDGSPSPELYLRWFQLGSYLPLFRTRAGLRAGRRELWEFGEDVLEHARVALVERRRLLPYFMTLAHLARRTGAPYVRPVWWGAPEDRALRDCEDAFLLGDSLLVAPVLDPGADRRAVQLPRGRWYDTVTEKAYDGPGQVLIGAPLSRIPVLARAGAVLPVRGDGGRLELEVWRPARGRTGGGLVVPDSGDGWDEPEIEQYVTRLRGQRVVVERDGDEGPGEPSYPVRVRGLPQA,failed
5,MDGSEDDPTIFSARCLPSDPRLWATVTNSYLGTRVYHDTIHINGVYNGAVGDTHRASLPSPLNVQLEAPAGTEQLTETFTLDTNTGSFLHTLEGPSFRASQRIYAHRVLPHVLVFSVSIARLTTGNKPITVPLRADFSPESPDLDLRVGPDFQGLRYLHGHVLNPEQPGEPQQEVHMLWMPVPPALTLGEEEKDRTWEFLTVVGSSQAEAQDCFAEALQLQTRGVLYTIHADSWGRLWAGCGLDVAGPLALRQALRGSLYYLFSELPQPGTQGFISHGLSPGGLSNGSKEECYWGHIFWDQDIWMFPNILMFHPEAARAILEYRVRTLGGALKNGQNLGYQGAKFAWESASTGLEVCPEDIYGTQEIHINGAVALAFQLYYYYTQDSKLFQEDGGWDVVSSVAEFWCSRVEWSSQDKMYHLKGVMPPDEYHSGVNNSVYTNVLVQNSLHFAAALAKDLGLPIRKQWLEVADRIKIPFDSEQNFHPEFDGYERGEEVKQADVVLLGYPVPFPLTPDIRRKNLETYEAVTSPQGPAMTWSMFAVGWMELRDPSRAQVHLSRSFANVTEPFKVWTENADGSGAVNFLTGMGGFLQAALFGCTGFRITEAGVTFDPLCPDLVSRVSVSGISYLGNKINFAFSKDSVTLEVTARAEPWAPLLEAELWPSLAHLPLTPGQKVSFPHSAGRIQRSSP,failed
6,MDHFSYRNTNKMVRTHVVVGSRPCCFSCAMEEKDPCVRKAWLELSLRDMHMIRDDTELALTLSFIWRYAMADPENPELPSLGVFECMTRLMKKGLEDVEWVMTGQNVYVPYYAAHIIGSYTMKKPDFATKAVESGVIAPLLELMRRKMSWVEQRVVVRALGHLASYETTFEAVAAYEDEVVRLAMEIAMTCVDVVYEEFVSVQEKEGRVRYHSDLLTRGLGGLEMEDRKAEEWASQLQCWSLHLLNCFAYKQKCISLICNKTFLKELSQMWGGLVNHTSPSGIGLIRILCYSKQGRRHVSGSREMILSLCNLSRSSDDWQYMGIDCLLLLLKDQATRYNVLEMSLFYLVDLVEVKALNVRKNLGDRITKVLLMHYCKTKKGCAYSHKAQKALKELWRNKVERRRRERKFMSKNQDFLRETSVVVYLIKQQANQLLHVGDIEGAIKCYTEAIGLCPLKLRRKRMNLYSERGECYLLLGDVDAAISDCTRALCLSEPVNSHGKSLWTRSRAYDIKGLSRESLMDCIMFVNGRCFRGNIPYYAAQMISKQMEATWLFEKARASKLGRMMLKEKFHLTGIFIFLYICMNISS,failed
7,MDHKDYSRQNAERRLLLSKDEERIRDELEMEIERNLEGEFKDGIYNLALKLRRLYEQRREREELFDVSMRKSKRVLEVNINIKMEGDTKIEITEKKKEVDNEKTKKAENSDKRKKFVAVGEDKTGKEKMKNQTRAHELRWKW,failed
8,MDHLPMPKFGPLAGLRVVFSGIEIAGPFAGQMFAEWGAEVIWIENVAWADTIRVQPNYPQLSRRNLHALSLNIFKDEGREAFLKLMETTDIFIEASKGPAFARRGITDEVLWQHNPKLVIAHLSGFGQYGTEEYTNLPAYNTIAQAFSGYLIQNGDVDQPMPAFPYTADYFSGLTATTAALAALHKVRETGKGESIDIAMYEVMLRMGQYFMMDYFNGGEMCPRMSKGKDPYYAGCGLYKCADGYIVMELVGITQIEECFKDIGLAHLLGTPEIPEGTQLIHRIECPYGPLVEEKLDAWLATHTIAEVKERFAELNIACAKVLTVPELESNPQYVARESITQWQTMDGRTCKGPNIMPKFKNNPGQIWRGMPSHGMDTAAILKNIGYSENDIQELVSKGLAKVED,not failed
9,MDHSLNSLNNFDFLARSFARMHAEGRPVDILAVTGNMDEEHRTWFCARYAWYCQQMMQARELELEH,not failed
10,MDIEIENHPLEPFLPANARLLMLGSFPPQKKRWSMDFYYPNLNNDMWRIVGLLFFNNKDYFLNETRKAFCRERIISFLNDKGIALFDTASAIRRLQDNASDKFLEVVQPTDISRLLGQLPECKAIVTTGQKATDTLRAQFEVEEPKVGDFSEFVFDGRPVRLYRMPSSSRAYPLALDKKAAAYRTMYQDLQMLNIELEHHHHHH,not failed
11,MDIEVDIIEFKVPLENNKTIFIWDIQPTFTEAYIYESLWSVYSAFGDLYLLKVCPNATVAEPGFYALVKFYSSAQASKAQRATDKQCLFQSSPLKVRLSTKQNLSFYSSKPLCLSKCHNLANHYLGFGGWTTRIVTLKDLSNCVDAGCQEETGDQGVLLKYGCIMELSFPHHGMSCQGVGVAEEVLDSDQDPEEKLRKRGALMKRAKDKAMEVAFEKVLLLILGNGKVAIEIKIDPDEIVPEENSERVIKVNDISWTHIESADSNAEEDFLWDLTEDLPY,failed
12,MDIGRKRDVFLIILPALCAFALALIPTFRYTVPLTWDVYYHIHNATLYMGRGIVFWDPLTSAPHGRPLYYPPLFHIMLLFLSKITGLGFFTVSRFMQPVFAFLILLSFSYVSGKLYGPLAGFLTGMFLFSSLFFMRMMFPIPESLAMISIPLFVYGYYRSMECCSRLYPVLTGLLLGLMLMTHILSASIILAVVTLSTIVLYIGKYDIRPWNLLIILGSGLLLASVWYAPLIVKYGFVFRSPATSSLPLEGYITHLGVLLTILSLAGIVHAAGRREKKDVIMAVWTVFVLALTAAYLLGLKVLSDRILYFALFPMATLSANLFNSIRINNGKWSFYAIILLISLYCIYDGYSLASSIKLEVSDSELDIAEWFRYNGDHATVVVSDYHIQPAIVAVSGQPVSAGGYAPGTIRSINVEKYISSFNYTKHDIMRDRVGYIILDNEERTPPYSRLVYRNRDFSVYRVNV,failed
13,MDIHQELKELSKFLSEYSTSLMAVGVQTSRIVRNTSRIAESFGFFCDMTIFQKTIIMTLRDADNSHSYSTVNKIKPMGLNFAINSALSTLSWEAYDEHLSLSELQRRYHEIVSKPRESKWLVLILVAFANASFCRLFQGDFISMGIVFVATLAGFFVRTELMGRHWNHLAIFIISSFIASMIGSTGYLMHWGDTPDMALGTSVLYLIPGVPLINAIMDIIDGHVLAGTSRFINACLLIICIAIGLSMTLLITGISTL,failed
14,MDIIPILLLAAGQSRRMGGADKLMQEIDGMPLLRRTALRAIPVAPVIAALPPAPHPRHGALVGLTLDIVEVPDAAEGMNASLRRAVAALPPEAPAAMILLADLPDLTESDLNTVRRAVDFSQKNLIWRGATEDGQPGHPVVFHRCLFPQLLALRGDQGAQPLVRDHADRVALVPLPGQHARTDLDTPEAWADWRARQQ,failed
15,MDIITKMQVDVPRETVFEAFVDPEKIGGFWFSSSSERWEQGKTITLRYEEYDAELNINIERVEDNQLIAFTWGAHPITIQFEESEAGTVVTTTEKDFDTQDVKQLLGQKEGWVYMLSCLKVYLEHGVTIRAAILLEHHHHHH,failed
16,MDIKVSGRKTTVTDALRAHVDEKIGEALKVFDIEPMTVDVVLRYEKNPSNPNPAIVEVTARARGSVIRVAEHGADMYAAIDLSADKVTRQLRKFKTKVVDNRQGGASAADVAPVERVEDLADLLLPEEDDDLLVREKVIDVTPMTEEQALVQTDLLGHDFYVFENATTGLINVVYHRKNGGYGIIKPRIETLDE,failed
17,MDINKLKLTPDSSIKEALKIVGQERVRLGIIVDKKDKFLGVISDSNIRKALISGKTLKDSIKDIYTKNPITIKENTSKEQLLKISAKTDIYDFPVLDEKGQILSIKSISSLLKANPNSIIIMAGGLGSRLKELTKDTPKPMLKVGKKPILESIIQRLKNQNFENFIFCVNYKKQIIEDYFQKGQKFGVKISYIKERKKLGTAGALSLIKQEFKESFIVMNADILTELDFNALLKAHKKSKALMSVCVREFEQQIPYGVITQKQGFIENIEEKPTQKFLVSAGIYVLENEILNLIAKNEYLDMPELIKLVLQKGKVNTYIINDYWIDIGRPDEFLKANEDFKLEHHHHHH,not failed
18,MDINMKKHKTIQFIVAALFIASACTDDRDNLMVNDQIGLLHSTYTETEIFRGMDTPYQLFVIKSGKGKQETEVSISVDETVLQSYNTDNGTSIQLLPSDCYTILQPALRLNDSDYRKAFDIKWNADRLSDLLSTGKEYGLPIQMSVVQNFISADDERLKTIIVPTIKEPYLQMDVPGMSPVTDFMPTFGDLNERELFVKIRTNYSNDEDISFQIEVDPQLVIDYNTAHGTAYKMLPESSFTVDNKGVILTGMKETFIKIKYHKKGLIPEEGTYLFGDYVLPLRITSVSKYGISPDAASKLYTVKFQPDPIDKKGWSVIDFNNCCTQDGGWYLNMGWGVESLIDNNPGTQWLCRWDVKEPLPYYFVFDMGKEYTLFRFGFANPVAPAAHVWAGTSKAGYVEASIDNENWVKLKDWTSPKIGEPNVNMDVPATQARYIRFVITDTYPTYDGLRVSLGEVYAWGM,failed
19,MDIQNMPREQLGVCAEGNLHSVYLMFNANDNVESQLRPCIANVAQYIYELTDQYSDSAFNGFVAIGANYWDSLYPESRPEMLKPFPAMQEGNREAPAIEYDLFVHLRCDRYDILHLVANEISQMFEDLVELVEEERGFRFMDSRDLTGFVDGTENPKGRHRQEVALVGSEDPEFKGGSYIHVQKYAHNLSKWHRLPLKKQEDIIGRTKQDNIEYESEDKPLTSHIKRVNLKDENGKSIEILRQSMPYGSLKEQGLMFISTCRTPDHFEKMLHSMVFGDGAGNHDHLMHFTSALTGSSFFAPSLDFLMQFDN,not failed
